This note sets out measurements from PMC13281853 (The FASEB Journal, 2022).

The target of series [1] is ancGR2-LBD (ligand-binding domain of the ancestral glucocorticoid receptor 2), Dex-bound. Description: SPR. (SPR reads the build-up and loss of mass on a sensor chip optically.)
The series “SPR” deals with the molecule itself. Kind of series: SPR.

B1: MR-LBD (ligand-binding domain of the mineralocorticoid receptor), Dex-bound (domain or fragment)
chain: QLSTISRALTPSPVMVLENIEPEIVYAGYDSSKPDTAENLLSTLNRLAGKQMIQVVKWAKVLPGFKNLPLEDQITLIQYSWMCLSSFALSWRSYKHTNSQFLYFAPDLVFNEEKMHQSAMYELCQGMHQISLQFVRLQLTFEEYTIMKVLLLLSTIPKDGLKSQAAFEEMRTNYIKELRKMVTKCPNNSGQSWQRFYQLTKLLDSMHDLVSDLLEFCFYTFRESHALKVEFPAMLVEII
In general, Kd refers to the constant that tells how readily two partners part at equilibrium. As for B1, the equilibrium dissociation constant (Kd) in series [1] came out at 11.6 ± 1.5 µM; in “SPR”, 1.49 ± 0.41 µM.
